Data on 4 molecules can be found in PMC9482650, “Quantitative fragmentomics allow affinity mapping of interactomes” (Nature Communications, 2022).

Among the targets are DLG1_1, Q12959; DLG1_3, Q12959; DLG4_1, P78352; Inadl_3, Q8NI35; Inadl_4, Q8NI35; Inadl_9, Q8NI35; MAGI1_2, Q96QZ7; MAGI2_5, Q86UL8.
What all share (test): holdup assay
Holding throughout (design): key: below the threshold = too weak to quantify, mostly under pKd 3.1 to 4

The next assay concerns the target T1, APBA1_1, Q02410.
T1 sequence (Q02410 651-752, limits assumed, looked up): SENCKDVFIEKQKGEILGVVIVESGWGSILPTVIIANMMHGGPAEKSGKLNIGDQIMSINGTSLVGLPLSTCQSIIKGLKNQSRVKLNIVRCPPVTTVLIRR

Another assay concerns the target T2, APBA2_1, Q99767.
T2 sequence (Q99767 563-664, limits assumed, looked up): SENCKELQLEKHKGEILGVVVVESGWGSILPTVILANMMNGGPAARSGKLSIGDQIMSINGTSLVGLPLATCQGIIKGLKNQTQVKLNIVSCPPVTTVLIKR

In another assay the target is T3, APBA2_2, Q99767.
T3 sequence (Q99767 654-744, limits assumed, looked up): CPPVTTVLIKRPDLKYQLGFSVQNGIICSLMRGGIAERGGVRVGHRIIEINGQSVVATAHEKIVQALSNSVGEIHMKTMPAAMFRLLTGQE

The next assay concerns the target T4, DFNB31_3, Q9P202.
T4 sequence (Q9P202 811-907, limits assumed, looked up): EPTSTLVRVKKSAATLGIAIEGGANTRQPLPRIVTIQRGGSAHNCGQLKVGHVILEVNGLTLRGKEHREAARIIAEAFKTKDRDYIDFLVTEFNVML

A further assay has as its target T5, GRIP1_2, Q9Y3R0.
T5 sequence (Q9Y3R0 145-248, limits assumed, looked up): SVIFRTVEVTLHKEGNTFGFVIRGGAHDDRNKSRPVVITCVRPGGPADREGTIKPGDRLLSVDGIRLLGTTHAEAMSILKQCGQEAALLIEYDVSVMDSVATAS

Another assay deals with T6, GRIP1_3, Q9Y3R0.
T6 sequence (Q9Y3R0 247-346, limits assumed, looked up): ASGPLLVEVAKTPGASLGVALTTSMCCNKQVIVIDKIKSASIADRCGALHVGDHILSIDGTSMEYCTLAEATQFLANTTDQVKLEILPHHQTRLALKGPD

In a further assay the target is T7, HTRA4, P83105.
T7 sequence (P83105 378-476, limits assumed, looked up): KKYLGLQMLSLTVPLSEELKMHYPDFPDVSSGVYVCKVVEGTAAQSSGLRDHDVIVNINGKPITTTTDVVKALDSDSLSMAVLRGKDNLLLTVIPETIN

Another assay addresses T8, LIN7C, Q9NUP9.
T8 sequence (Q9NUP9 88-185, limits assumed, looked up): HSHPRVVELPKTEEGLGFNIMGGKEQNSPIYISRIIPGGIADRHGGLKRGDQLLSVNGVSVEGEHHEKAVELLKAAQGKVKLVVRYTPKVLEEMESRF

Another assay addresses T9, PDZD7_3, Q9H5P4.
T9 sequence (Q9H5P4 857-944, limits assumed, looked up): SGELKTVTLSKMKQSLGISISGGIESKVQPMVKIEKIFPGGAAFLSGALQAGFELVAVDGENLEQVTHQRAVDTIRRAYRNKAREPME

The target in the next assay is T10, RAPGEF6, Q8TEU7.
T10 sequence (Q8TEU7 525-625, limits assumed, looked up): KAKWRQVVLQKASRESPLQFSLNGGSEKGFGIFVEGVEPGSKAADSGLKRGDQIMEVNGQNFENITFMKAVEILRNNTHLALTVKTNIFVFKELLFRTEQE

Another assay has as its target T11, SNTA1, Q13424.
T11 sequence (Q13424 82-180, limits assumed, looked up): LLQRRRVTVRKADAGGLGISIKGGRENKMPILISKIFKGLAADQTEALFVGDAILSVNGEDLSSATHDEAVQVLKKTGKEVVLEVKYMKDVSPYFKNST

A further assay concerns the target T12, SYNJ2BP, P57105.
T12 sequence (P57105 8-110, limits assumed, looked up): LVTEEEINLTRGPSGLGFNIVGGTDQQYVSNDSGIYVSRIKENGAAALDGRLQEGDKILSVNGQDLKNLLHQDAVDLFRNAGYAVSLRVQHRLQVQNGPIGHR

The target of a further assay is T13, TIAM2, Q8IVF5.
T13 sequence (Q8IVF5 885-986, limits assumed, looked up): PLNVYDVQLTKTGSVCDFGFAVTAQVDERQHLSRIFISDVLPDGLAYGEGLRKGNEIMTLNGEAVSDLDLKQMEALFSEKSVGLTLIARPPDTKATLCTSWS

The target in a further assay is T14, TX1BP3, O14907.
T14 sequence (O14907 10-122, limits assumed, looked up): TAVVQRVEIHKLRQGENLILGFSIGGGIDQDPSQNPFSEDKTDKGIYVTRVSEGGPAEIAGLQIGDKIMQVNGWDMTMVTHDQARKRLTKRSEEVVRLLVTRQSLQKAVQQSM

The mark [1] stands for this setting: plain residues with an end cap or a label only (N-terminal biotin on a linker: ahx).
[2] abbreviates: plain residues with an end cap or a label only (N-terminal biotin on a linker: ttds).

Chain of Inadl_9, Q8NI35 (Q8NI35 1530-1615): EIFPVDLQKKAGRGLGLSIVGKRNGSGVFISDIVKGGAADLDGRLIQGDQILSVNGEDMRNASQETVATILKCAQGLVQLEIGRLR
Chain of MAGI2_5, Q86UL8 (Q86UL8 915-1017): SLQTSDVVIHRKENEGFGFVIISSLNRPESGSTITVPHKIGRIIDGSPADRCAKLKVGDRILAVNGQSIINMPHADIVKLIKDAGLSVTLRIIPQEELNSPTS
Chain of Inadl_3, Q8NI35 (Q8NI35 359-469): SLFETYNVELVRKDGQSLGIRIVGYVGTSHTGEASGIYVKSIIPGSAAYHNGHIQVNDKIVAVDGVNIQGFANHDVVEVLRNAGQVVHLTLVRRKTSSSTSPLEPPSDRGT
Chain of DLG4_1, P78352 (P78352 62-152): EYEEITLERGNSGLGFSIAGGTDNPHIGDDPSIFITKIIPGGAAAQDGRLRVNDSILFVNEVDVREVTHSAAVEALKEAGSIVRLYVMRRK
Chain of MAGI1_2, Q96QZ7 (Q96QZ7 456-580): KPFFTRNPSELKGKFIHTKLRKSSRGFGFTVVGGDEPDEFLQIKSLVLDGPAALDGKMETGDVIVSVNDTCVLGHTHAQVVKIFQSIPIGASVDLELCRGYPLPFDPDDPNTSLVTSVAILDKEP
Chain of Inadl_4, Q8NI35 (Q8NI35 547-651): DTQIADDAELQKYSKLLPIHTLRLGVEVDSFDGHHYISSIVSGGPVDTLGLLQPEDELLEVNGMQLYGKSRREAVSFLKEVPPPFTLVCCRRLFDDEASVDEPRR

B1: ADRB2, P07550 (peptide)
chain: RNCSTNDSLL
By pKd is commonly meant −log10 of the Kd, conventionally taken in molar units. As to B1, the pKd was 3.63 with APBA1_1, Q02410 (setting [1]); “below the threshold” with APBA2_1, Q99767 (setting [1]); “below the threshold” with APBA2_2, Q99767 (setting [1]); “below the threshold” with DFNB31_3, Q9P202 (setting [1]); “below the threshold” with DLG1_1, Q12959 (setting [1]); “below the threshold” with DLG1_3, Q12959 (setting [1]). Also, the pKd entry was “below the threshold” with DLG4_1, P78352 (setting [1]); “below the threshold” with GRIP1_2, Q9Y3R0 (setting [1]); “below the threshold” with GRIP1_3, Q9Y3R0 (setting [1]); “below the threshold” in the assay with HTRA4, P83105 (setting [1]); 3.73 with Inadl_3, Q8NI35 (setting [1]); “below the threshold” with Inadl_4, Q8NI35 (setting [1]). Besides, the pKd entry with Inadl_9, Q8NI35 (setting [1]) is “below the threshold”; with LIN7C, Q9NUP9 (setting [1]), “below the threshold”; in the assay with MAGI1_2, Q96QZ7 (setting [1]), “below the threshold”; with MAGI2_5, Q86UL8 (setting [1]) it was “below the threshold”; with PDZD7_3, Q9H5P4 (setting [1]), 3.57; in the assay with RAPGEF6, Q8TEU7 (setting [1]) it was “below the threshold”. The negative logarithm of the Kd (pKd) result with SNTA1, Q13424 (setting [1]) is “below the threshold”; in the assay with SYNJ2BP, P57105 (setting [1]), “below the threshold”; in the assay with TIAM2, Q8IVF5 (setting [1]), “below the threshold”; in the assay with TX1BP3, O14907 (setting [1]), 3.49.

B2: DGKK, Q5KSL6 (peptide)
chain: DPLTPSRSQL
Consider B2, for which the negative logarithm of the Kd (pKd) result with APBA1_1, Q02410 (setting [2]) was “below the threshold”; with APBA2_1, Q99767 (setting [2]), “below the threshold”; with APBA2_2, Q99767 (setting [2]), “below the threshold”; with DFNB31_3, Q9P202 (setting [2]), “below the threshold”; with DLG1_1, Q12959 (setting [2]) it was 4.01; in the assay with DLG1_3, Q12959 (setting [2]) it was “below the threshold”. The pKd result in the assay with DLG4_1, P78352 (setting [2]) is listed as “below the threshold”; in the assay with GRIP1_2, Q9Y3R0 (setting [2]) it was “below the threshold”; in the assay with GRIP1_3, Q9Y3R0 (setting [2]) it was “below the threshold”; in the assay with HTRA4, P83105 (setting [2]), “below the threshold”; with Inadl_3, Q8NI35 (setting [2]), “below the threshold”; with Inadl_4, Q8NI35 (setting [2]) it was “below the threshold”. Further, the negative logarithm of the Kd (pKd) result is reported as “below the threshold” in the assay with Inadl_9, Q8NI35 (setting [2]); “below the threshold” with LIN7C, Q9NUP9 (setting [2]); “below the threshold” with MAGI1_2, Q96QZ7 (setting [2]); “below the threshold” in the assay with MAGI2_5, Q86UL8 (setting [2]); “below the threshold” with PDZD7_3, Q9H5P4 (setting [2]); “below the threshold” with RAPGEF6, Q8TEU7 (setting [2]). The pKd result in the assay with SNTA1, Q13424 (setting [2]) is given as “below the threshold”; in the assay with SYNJ2BP, P57105 (setting [2]), “below the threshold”; in the assay with TIAM2, Q8IVF5 (setting [2]), “below the threshold”; in the assay with TX1BP3, O14907 (setting [2]), “below the threshold”.

B3: NHERF3, Q5T2W1 (peptide)
chain: SSSNSEDTEM
With B3, the pKd entry with APBA1_1, Q02410 (setting [1]) is recorded as “below the threshold”; in the assay with APBA2_1, Q99767 (setting [1]), “below the threshold”; with APBA2_2, Q99767 (setting [1]), “below the threshold”; with DFNB31_3, Q9P202 (setting [1]) it was “below the threshold”; with DLG1_1, Q12959 (setting [1]), “below the threshold”; with DLG1_3, Q12959 (setting [1]) it was “below the threshold”. Besides, the pKd entry is recorded as “below the threshold” in the assay with DLG4_1, P78352 (setting [1]); “below the threshold” in the assay with GRIP1_2, Q9Y3R0 (setting [1]); “below the threshold” with GRIP1_3, Q9Y3R0 (setting [1]); “below the threshold” in the assay with HTRA4, P83105 (setting [1]); “below the threshold” with Inadl_3, Q8NI35 (setting [1]); “below the threshold” with Inadl_4, Q8NI35 (setting [1]). Further, the pKd result with Inadl_9, Q8NI35 (setting [1]) is “below the threshold”; in the assay with LIN7C, Q9NUP9 (setting [1]), “below the threshold”; in the assay with MAGI1_2, Q96QZ7 (setting [1]), “below the threshold”; in the assay with MAGI2_5, Q86UL8 (setting [1]) it was “below the threshold”; with PDZD7_3, Q9H5P4 (setting [1]), “below the threshold”; in the assay with RAPGEF6, Q8TEU7 (setting [1]), “below the threshold”. Further, the pKd result with SNTA1, Q13424 (setting [1]) was “below the threshold”; in the assay with SYNJ2BP, P57105 (setting [1]) it was “below the threshold”; with TIAM2, Q8IVF5 (setting [1]), “below the threshold”; with TX1BP3, O14907 (setting [1]), “below the threshold”.

B4: ATP2B1, P20020 (peptide)
chain: SPLHSLETSL
Consider B4, for which the pKd entry with APBA1_1, Q02410 (setting [2]) is “below the threshold”; with APBA2_1, Q99767 (setting [2]) it was “below the threshold”; in the assay with APBA2_2, Q99767 (setting [2]) it was “below the threshold”; with DFNB31_3, Q9P202 (setting [2]) it was “below the threshold”; in the assay with DLG1_1, Q12959 (setting [2]), 4.12; with DLG1_3, Q12959 (setting [2]), 4.08. Also, the pKd in the assay with DLG4_1, P78352 (setting [2]) is 4.06; with GRIP1_2, Q9Y3R0 (setting [2]), “below the threshold”; with GRIP1_3, Q9Y3R0 (setting [2]), “below the threshold”; in the assay with HTRA4, P83105 (setting [2]), 3.48; with Inadl_3, Q8NI35 (setting [2]), 3.51; with Inadl_4, Q8NI35 (setting [2]), “below the threshold”. Further, the pKd result in the assay with Inadl_9, Q8NI35 (setting [2]) was “below the threshold”; with LIN7C, Q9NUP9 (setting [2]), 4.45; with MAGI1_2, Q96QZ7 (setting [2]) it was 3.78; with MAGI2_5, Q86UL8 (setting [2]), 4.31; with PDZD7_3, Q9H5P4 (setting [2]), 4.63; with RAPGEF6, Q8TEU7 (setting [2]), “below the threshold”. Moreover, the negative-log Kd (pKd) is 4.5 in the assay with SNTA1, Q13424 (setting [2]); 4.91 in the assay with SYNJ2BP, P57105 (setting [2]); “below the threshold” with TIAM2, Q8IVF5 (setting [2]); 4.45 in the assay with TX1BP3, O14907 (setting [2]).
